Columns and labels:
Experiment in all cases: Kinase Profiling Assay
Type in all cases: biochemical
Conditions in all cases: 100 μM peptide
Abl(Q252H)(h) = Abl(Q252H)(h) (Homo sapiens, UniProt P00519, Q252H)
Method in brief: (§1)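 MK2 inhibitory peptides were screened for specificity across a commercial panel of 266 human kinases, and each kinase activity measurement was run in duplicate.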

Pyk2(h) = target: T1, Pyk2(h) (Homo sapiens, UniProt Q14289)
T1 construct: purchased Millipore (IC50 Profiler Express service)
Method in brief: as §1

PKG1β(h) = target: T2, PKG1β(h) (Homo sapiens, UniProt Q13976)
T2 construct: purchased Millipore (IC50 Profiler Express service)
T2 sequence (Q13976 1-686 isoform Q13976-2): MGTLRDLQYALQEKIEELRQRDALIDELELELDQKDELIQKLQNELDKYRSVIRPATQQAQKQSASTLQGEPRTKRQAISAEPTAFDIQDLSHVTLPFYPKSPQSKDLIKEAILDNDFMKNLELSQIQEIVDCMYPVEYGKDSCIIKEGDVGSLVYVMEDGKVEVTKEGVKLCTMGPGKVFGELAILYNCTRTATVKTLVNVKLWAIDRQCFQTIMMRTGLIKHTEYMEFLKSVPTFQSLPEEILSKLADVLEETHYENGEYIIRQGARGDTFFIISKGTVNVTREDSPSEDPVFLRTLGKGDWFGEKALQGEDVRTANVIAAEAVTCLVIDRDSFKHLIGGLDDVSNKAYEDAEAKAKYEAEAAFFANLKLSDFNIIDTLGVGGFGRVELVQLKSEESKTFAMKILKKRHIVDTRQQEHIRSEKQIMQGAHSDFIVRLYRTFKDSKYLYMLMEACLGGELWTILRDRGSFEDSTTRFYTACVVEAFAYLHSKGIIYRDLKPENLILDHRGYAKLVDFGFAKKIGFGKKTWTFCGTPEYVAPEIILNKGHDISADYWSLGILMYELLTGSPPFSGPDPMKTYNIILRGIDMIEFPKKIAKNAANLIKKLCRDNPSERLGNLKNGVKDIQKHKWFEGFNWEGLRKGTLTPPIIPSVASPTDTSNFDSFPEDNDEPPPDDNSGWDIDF
Method in brief: as §1

WNK2(h) = WNK2(h) (Homo sapiens, UniProt Q9Y3S1)
Method in brief: as §1

MKK6(h) = target: T3, MKK6(h) (Homo sapiens, UniProt P52564)
T3 sequence (P52564 1-334): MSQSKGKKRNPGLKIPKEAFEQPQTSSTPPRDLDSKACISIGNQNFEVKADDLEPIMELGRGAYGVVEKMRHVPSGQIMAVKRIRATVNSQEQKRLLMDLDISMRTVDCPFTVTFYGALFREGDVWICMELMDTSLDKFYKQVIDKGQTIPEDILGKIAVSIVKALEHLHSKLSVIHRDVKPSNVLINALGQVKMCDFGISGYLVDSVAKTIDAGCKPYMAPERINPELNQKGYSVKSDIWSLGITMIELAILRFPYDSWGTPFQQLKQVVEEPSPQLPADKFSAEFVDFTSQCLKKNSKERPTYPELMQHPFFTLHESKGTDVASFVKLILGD
Method in brief: as §1

IRAK1(h) = target: T4, IRAK1(h) (Homo sapiens, UniProt P51617)
T4 construct: purchased Millipore
Method in brief: as §1

Src(T341M)(h) = Src(T341M)(h) (Homo sapiens, UniProt P12931, T341M)
Method in brief: as §1

CDK2/cyclinA(h) = CDK2/cyclinA(h) (Homo sapiens, UniProt P24941)
Method in brief: as §1

PTK5(h) = target: T5, PTK5(h) (Homo sapiens, UniProt P42685)
T5 construct: purchased Millipore (IC50 Profiler Express service)
Method in brief: as §1

PKCι(h) = target: T6, PKCι(h) (Homo sapiens, UniProt P41743)
T6 construct: purchased Millipore (IC50 Profiler Express service)
T6 sequence (P41743 1-596): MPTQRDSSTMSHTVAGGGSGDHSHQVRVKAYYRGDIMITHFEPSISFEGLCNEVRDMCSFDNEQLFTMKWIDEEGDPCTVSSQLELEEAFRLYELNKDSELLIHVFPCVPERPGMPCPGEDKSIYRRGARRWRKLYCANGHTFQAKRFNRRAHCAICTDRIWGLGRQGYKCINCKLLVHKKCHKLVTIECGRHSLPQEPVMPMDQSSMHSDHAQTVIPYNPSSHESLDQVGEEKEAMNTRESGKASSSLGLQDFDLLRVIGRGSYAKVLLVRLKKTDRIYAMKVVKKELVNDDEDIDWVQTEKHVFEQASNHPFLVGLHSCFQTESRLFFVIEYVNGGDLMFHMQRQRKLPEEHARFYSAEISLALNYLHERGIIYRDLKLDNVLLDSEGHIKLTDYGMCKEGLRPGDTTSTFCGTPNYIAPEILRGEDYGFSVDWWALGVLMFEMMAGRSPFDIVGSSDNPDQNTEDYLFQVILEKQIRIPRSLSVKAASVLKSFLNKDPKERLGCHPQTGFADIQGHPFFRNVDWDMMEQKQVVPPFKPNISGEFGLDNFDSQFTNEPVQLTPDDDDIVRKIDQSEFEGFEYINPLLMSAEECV
Method in brief: as §1

FGFR1(V561M)(h) = FGFR1(V561M)(h) (Homo sapiens, UniProt P11362, V561M)
Method in brief: as §1

PhKγ2(h) = target: T7, PhKγ2(h) (Homo sapiens, UniProt P15735)
T7 sequence (P15735 1-406): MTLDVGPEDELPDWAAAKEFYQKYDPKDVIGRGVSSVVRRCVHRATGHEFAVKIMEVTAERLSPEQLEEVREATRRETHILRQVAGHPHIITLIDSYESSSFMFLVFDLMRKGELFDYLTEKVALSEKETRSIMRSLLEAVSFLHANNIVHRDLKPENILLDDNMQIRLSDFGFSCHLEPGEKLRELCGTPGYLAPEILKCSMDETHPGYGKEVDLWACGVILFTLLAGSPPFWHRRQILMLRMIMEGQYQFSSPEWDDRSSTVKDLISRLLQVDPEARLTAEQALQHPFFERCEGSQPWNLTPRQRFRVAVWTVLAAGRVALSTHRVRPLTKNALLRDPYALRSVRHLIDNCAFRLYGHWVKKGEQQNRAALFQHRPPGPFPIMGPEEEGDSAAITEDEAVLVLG
Method in brief: as §1

AMPKα1(h) = AMPKα1(h) (Homo sapiens, UniProt Q13131)
Method in brief: as §1

T1 sequence (Q14289 whole entry): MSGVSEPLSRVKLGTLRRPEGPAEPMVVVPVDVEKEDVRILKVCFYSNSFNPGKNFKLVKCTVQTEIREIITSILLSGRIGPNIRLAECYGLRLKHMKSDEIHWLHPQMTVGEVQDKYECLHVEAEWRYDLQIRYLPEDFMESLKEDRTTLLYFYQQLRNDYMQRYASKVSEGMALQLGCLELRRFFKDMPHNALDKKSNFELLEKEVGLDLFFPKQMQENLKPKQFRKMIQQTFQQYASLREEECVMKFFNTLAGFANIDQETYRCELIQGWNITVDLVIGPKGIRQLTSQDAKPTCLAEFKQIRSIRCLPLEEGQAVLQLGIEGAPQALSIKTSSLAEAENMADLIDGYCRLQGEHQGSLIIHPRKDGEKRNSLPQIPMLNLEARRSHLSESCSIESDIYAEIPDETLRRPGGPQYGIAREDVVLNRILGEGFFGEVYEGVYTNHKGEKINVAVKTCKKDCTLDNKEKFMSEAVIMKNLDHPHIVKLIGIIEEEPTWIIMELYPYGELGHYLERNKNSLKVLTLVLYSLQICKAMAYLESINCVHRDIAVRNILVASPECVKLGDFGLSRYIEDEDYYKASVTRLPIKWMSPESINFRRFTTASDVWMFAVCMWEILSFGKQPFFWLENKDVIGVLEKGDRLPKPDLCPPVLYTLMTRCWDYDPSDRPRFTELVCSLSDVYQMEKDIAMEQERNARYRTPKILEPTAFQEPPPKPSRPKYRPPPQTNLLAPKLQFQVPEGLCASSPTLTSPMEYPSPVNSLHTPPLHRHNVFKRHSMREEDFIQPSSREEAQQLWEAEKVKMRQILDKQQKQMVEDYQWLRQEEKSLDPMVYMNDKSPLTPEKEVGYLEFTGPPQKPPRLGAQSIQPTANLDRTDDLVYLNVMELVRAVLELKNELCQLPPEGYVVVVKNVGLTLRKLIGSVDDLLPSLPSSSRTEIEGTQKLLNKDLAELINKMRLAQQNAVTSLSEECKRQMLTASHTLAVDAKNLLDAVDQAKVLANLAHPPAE
T4 sequence (P51617 whole entry): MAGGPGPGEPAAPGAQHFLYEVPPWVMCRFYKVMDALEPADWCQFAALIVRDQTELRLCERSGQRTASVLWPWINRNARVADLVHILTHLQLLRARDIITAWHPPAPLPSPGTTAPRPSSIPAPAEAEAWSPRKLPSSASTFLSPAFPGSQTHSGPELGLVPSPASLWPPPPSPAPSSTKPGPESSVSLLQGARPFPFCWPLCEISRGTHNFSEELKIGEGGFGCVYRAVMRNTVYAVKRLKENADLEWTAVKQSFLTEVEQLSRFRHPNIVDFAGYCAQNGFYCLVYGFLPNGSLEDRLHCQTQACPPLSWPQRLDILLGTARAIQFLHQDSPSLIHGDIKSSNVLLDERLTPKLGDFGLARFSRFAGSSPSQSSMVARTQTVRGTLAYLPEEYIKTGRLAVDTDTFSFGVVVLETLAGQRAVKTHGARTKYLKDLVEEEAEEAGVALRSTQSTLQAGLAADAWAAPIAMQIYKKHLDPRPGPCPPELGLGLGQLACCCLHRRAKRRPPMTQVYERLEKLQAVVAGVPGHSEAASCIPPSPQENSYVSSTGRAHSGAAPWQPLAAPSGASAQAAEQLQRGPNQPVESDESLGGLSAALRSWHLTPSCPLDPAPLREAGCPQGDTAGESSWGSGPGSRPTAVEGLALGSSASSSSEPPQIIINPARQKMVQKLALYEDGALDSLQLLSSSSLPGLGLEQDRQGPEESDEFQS
WNK2(h), sequence (Q9Y3S1 whole entry): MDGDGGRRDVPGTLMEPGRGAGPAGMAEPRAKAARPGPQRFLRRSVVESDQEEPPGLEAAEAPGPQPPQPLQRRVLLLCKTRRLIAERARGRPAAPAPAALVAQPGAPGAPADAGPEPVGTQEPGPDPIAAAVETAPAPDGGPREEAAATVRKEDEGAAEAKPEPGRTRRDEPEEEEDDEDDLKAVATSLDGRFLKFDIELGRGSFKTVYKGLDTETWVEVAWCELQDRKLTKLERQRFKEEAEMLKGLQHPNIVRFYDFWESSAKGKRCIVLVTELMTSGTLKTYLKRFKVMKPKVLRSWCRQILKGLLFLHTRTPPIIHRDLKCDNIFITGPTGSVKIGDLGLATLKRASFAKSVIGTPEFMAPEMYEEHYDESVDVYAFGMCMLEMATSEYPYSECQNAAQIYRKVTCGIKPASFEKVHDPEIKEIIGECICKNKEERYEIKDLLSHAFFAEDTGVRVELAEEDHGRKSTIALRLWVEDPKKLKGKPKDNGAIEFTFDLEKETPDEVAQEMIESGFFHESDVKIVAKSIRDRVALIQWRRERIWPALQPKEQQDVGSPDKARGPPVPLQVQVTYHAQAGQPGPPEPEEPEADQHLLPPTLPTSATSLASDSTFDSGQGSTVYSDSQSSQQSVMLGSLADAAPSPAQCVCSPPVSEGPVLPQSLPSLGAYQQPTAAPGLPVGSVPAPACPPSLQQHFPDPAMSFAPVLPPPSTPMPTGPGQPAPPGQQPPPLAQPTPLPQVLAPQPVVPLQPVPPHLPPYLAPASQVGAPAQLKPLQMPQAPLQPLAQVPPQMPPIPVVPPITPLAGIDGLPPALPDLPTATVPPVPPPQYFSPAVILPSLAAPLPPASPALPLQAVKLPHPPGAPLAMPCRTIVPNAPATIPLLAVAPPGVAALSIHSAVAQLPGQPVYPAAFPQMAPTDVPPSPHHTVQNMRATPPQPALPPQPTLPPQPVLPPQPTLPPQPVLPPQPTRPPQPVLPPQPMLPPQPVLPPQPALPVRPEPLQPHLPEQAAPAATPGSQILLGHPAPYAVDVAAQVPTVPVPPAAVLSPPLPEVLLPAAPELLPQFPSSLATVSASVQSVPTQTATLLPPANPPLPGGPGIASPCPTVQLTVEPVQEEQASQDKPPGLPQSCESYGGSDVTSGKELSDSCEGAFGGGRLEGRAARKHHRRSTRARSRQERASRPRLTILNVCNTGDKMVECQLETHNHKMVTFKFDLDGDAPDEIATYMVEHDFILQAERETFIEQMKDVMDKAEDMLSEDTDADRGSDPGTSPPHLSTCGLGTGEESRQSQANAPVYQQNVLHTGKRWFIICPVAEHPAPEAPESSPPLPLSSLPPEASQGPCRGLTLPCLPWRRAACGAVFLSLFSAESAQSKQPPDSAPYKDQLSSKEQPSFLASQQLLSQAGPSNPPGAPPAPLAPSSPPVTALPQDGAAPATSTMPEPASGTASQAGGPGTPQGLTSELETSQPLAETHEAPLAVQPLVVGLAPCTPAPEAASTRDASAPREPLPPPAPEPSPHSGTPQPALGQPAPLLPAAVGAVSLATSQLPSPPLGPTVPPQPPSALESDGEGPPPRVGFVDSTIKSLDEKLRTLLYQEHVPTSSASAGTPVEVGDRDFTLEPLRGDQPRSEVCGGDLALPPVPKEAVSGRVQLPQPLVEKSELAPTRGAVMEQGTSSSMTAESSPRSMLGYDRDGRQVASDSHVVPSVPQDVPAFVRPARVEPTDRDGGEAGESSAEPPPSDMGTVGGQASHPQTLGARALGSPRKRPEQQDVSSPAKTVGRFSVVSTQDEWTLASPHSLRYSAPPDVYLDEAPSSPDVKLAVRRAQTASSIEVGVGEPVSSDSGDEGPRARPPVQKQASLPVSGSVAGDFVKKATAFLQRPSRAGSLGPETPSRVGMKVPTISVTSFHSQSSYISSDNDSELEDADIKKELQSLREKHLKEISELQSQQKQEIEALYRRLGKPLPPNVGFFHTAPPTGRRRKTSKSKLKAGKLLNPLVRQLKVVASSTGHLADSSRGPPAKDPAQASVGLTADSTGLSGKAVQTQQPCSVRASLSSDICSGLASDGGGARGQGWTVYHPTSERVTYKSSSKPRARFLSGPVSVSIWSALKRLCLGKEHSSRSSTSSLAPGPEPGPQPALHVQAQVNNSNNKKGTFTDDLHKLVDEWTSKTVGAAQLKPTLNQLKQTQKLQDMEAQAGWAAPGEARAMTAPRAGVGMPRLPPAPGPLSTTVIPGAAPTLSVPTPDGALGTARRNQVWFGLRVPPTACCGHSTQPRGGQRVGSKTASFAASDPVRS
FGFR1(V561M)(h), sequence (P11362 22-822 V561M): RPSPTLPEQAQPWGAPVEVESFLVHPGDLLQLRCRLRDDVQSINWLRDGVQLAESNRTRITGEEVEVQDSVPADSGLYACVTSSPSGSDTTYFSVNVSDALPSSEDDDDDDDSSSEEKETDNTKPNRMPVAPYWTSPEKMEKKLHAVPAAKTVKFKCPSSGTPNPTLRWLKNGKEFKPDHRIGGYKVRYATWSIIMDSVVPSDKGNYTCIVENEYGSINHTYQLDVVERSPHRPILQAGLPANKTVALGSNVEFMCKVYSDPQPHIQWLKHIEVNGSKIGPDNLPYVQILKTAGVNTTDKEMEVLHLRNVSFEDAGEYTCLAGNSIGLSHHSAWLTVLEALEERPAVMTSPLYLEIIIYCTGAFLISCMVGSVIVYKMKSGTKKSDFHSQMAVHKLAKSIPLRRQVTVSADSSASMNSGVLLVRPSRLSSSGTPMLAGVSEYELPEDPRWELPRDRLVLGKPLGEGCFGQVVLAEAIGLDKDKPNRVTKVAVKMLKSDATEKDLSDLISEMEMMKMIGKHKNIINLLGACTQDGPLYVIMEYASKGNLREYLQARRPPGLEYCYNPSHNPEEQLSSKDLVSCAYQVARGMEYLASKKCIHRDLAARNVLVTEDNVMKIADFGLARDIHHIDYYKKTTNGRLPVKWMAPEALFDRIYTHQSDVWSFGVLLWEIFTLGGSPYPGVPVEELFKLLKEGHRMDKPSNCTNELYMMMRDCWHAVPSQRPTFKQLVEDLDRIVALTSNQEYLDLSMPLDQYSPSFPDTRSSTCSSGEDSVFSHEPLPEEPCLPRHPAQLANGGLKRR

| Sequence | Abl(Q252H)(h) % activity (Abl(Q252H)(h)) [%] | Pyk2(h) % activity (Pyk2(h)) [%] | PKG1β(h) % activity (PKG1β(h)) [%] | WNK2(h) % activity (WNK2(h)) [%] | MKK6(h) % activity (MKK6(h)) [%] | IRAK1(h) % activity (IRAK1(h)) [%] | Src(T341M)(h) % activity (Src(T341M)(h)) [%] | CDK2/cyclinA(h) % activity (CDK2/cyclinA(h)) [%] | PTK5(h) % activity (PTK5(h)) [%] | PKCι(h) % activity (PKCι(h)) [%] | FGFR1(V561M)(h) % activity (FGFR1(V561M)(h)) [%] | PhKγ2(h) % activity (PhKγ2(h)) [%] | AMPKα1(h) % activity (AMPKα1(h)) [%] |
| --- | --- | --- | --- | --- | --- | --- | --- | --- | --- | --- | --- | --- | --- |
| FAKLAARLYRKALARQLGVAA [MMI-0300] | 82 | 47 | 50 | 64 | 48 | 95 | 70 | 86 | 132 | 68 | 74 | 46 | 71 |
| HRRIKAWLKKIKALARQLGVAA (Mammalian) [MMI-0500] | 40 | 46 | 24 | 8 | 18 | 5 | 59 | 87 | 96 | 7 | – | 16 | 35 |
| KAFAKLAARLYRKALARQLGVAA [MMI-0400] | 98 | 34 | 53 | 54 | 44 | 93 | 76 | 92 | 129 | 46 | 74 | 38 | 87 |
| YARAAARQARAKALNRQLGVA (Mammalian) [MMI-0200] | – | 127 | 57 | 94 | 98 | 101 | 56 | – | 108 | 97 | 72 | 86 | 108 |
